Consider five molecules from US20080009025A1, “PROTEIN KINASE REGULATION” (priority 1999, published 2008).

Where a SMILES comes first, the peptide text is derived from it.

The target in assay [1] is T1, PDK1 (Homo sapiens, UniProt O15530).
T1 sequence (O15530 1-556): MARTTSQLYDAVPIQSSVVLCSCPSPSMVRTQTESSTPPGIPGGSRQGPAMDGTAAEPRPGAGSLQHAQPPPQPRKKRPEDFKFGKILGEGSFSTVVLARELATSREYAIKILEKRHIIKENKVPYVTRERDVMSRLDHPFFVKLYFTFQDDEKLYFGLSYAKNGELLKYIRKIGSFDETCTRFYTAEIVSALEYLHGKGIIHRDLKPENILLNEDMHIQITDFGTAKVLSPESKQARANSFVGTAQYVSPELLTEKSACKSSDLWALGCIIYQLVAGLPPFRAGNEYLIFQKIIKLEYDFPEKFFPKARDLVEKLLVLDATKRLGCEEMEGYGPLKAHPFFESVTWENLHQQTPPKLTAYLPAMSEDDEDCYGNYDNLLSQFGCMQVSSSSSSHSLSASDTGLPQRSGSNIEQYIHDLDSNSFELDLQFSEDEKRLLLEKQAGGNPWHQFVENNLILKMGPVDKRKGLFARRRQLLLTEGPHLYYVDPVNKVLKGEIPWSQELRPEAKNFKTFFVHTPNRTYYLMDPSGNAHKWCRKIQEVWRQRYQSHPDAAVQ
In words: Glutathione-Sepharose pull-down of PDK1 with S6K1 or SGK1 from 293 cells. The class given is binding. Also on record: Full length PDK1 (residues 1-556); made in house; host or cells: 293 cells. The conditions noted are these: Flag-tagged S6K1 forms; wild type GST-PDK1. On the procedure:
FIG. 21. Interaction of S6K1 and SGK1 with PDK1. 293 cells were transiently transfected with DNA constructs expressing GST, GST-PDK1 wt or PDK1 L155E together with constructs expressing either wild type or the indicated mutants or truncations of HA tagged S6K1 (A) or wild type GST-ΔN-SGK1 or 422D mutant. 36 h post transfection the cells were lysed and GST fusion protein was purified by affinity chromatography on glutathione-Sepharose beads. Aliquots were electrophoresed on a 10% SDS-polyacrylamide gel, stained with Coomassie Blue, or immunoblotted using an anti-FLAG antibody to detect FLAG-S6K1 and anti-Myc antibody to detect Myc-PDK1. To establish that the wild type and mutant proteins were expressed at similar levels, […] of total lysate was electrophoresed on a 10% SDS-polyacrylamide gel and immunoblotted using the indicated antibodies. Duplicates of each condition are shown. Similar results were obtained in two different experiments.
Binding of PDK1 to SGK1 and S6K1. For the data presented in FIG. 22, 293 cells were cotransfected with 10 μg of the wild type or mutant PDK1 plasmid and 10 μg of either the wild type or mutant S6K1 or SGK1. […] The gels were either stained with Coomassie blue, or analysed by immunoblotting with either anti-Flag or anti-Myc antibodies (described below).

Assay [2] addresses T2, PDK1 (Homo sapiens, UniProt O15530).
T2 construct: Full length PDK1 (residues 1-556); made in house; host or cells: 293 cells
T2 sequence (O15530 52-556): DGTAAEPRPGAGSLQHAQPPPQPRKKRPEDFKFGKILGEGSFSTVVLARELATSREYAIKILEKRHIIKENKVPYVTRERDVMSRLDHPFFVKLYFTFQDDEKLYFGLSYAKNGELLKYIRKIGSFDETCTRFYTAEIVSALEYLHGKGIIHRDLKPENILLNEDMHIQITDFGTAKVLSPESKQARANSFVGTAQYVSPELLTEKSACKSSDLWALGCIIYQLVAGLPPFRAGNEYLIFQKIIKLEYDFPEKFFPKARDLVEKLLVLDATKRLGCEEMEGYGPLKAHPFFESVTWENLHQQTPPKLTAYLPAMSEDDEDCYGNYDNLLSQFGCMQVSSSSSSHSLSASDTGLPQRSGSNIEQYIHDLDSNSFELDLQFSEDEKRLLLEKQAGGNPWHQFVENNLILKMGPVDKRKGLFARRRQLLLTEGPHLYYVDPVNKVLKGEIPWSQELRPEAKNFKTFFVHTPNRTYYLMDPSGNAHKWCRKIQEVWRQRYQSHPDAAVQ
The assay can be described thus: PDK1 activity towards synthetic peptide substrates T308tide or PDKtide. The assay is classed as biochemical. On the procedure: FIG. 12. PDK1 is activated and stabilised through its interaction with PIFtide. (A) GST-PDK1 activity was measured in the presence of increasing concentrations of wild type (wt) PIFtide (closed circles) or a mutant D978A PIFtide (open circles) using the synthetic peptide substrate termed T308tide, as described in Material and Methods. The data was fitted to a hyperbola using the Kaleidagraph™ software. The connection needed to obtain 50% activation of PDK1 was […] for wt-PIFtide and 1.1 μM for D978A-PIFtide. The assay shown was performed in triplicate and there was less than 5% difference between each assay. Similar results were obtained in 2 further experiments (B)—The wild type GST-PDK1 (circles) or the L155D mutant of GST-PDK1 (squares) was incubated in the presence (closed symbols) or absence (open symbols) of […] PIFtife and then for 2 min at the indicated temperatures, rapidly brought to 0° C. (see Materials and Methods), and 2 min later assayed at 30° C. for 10 min using T308tide as substrate. The activity of PDK1 obtained by incubation at 30° C. was taken as 100%. The assay shown was performed in duplicate with similar results obtained in two separate experiments.
FIG. 14. […] (A) His-PDK1 was assayed for activity using as substrate the indicated concentration of either PDKtide (open triangles) or T308tide (open circles). (B) HIS-PDK1 was assayed for activity in the presence if PDKtide (25 μM closed triangles) or T308tide (100 μM closed circles) in the presence of the indicated concentrations of PIFtide. The assay was performed in triplicates with less than 5% difference between the triplicate samples. Similar results were obtained in 3 separate experiments.
PDK1's ability to phosphorylate Thr308 of PKBα was measured using a mutant of GST-PKBα in which Ser473 was mutated to Asp (GST-473D PKBα) in the presence of phospholipid vesicles containing sn-1-stearoyl-2-arachidonoyl-D-PtdIns (3, 4, 5)P3 [13]. The ability of wild type and mutant PDK1 to phosphorylate the synthetic peptides T308tide or PDKtide was carried out in 20 μl assays containing 50 mM Tris/HCl pH 7.5, 0.1% 2-mercaptoethanol 10 mM MgCl2, 100 μM [γ^32P]ATP (˜500 cpm/pmol) 0.5 μM microcystin-LR.PDK1 and the peptide concentrations indicated under Results. After incubation for 10 min at 30° C. the reaction was stopped by addition of 20 μl of 150 mM phosphoric acid. 35 μl of the resultant mixture was spotted into P81 phosphocellulose paper (2×2 cm) and the papers washed and analysed as described previously for assays of MAP kinase. […] Control assays were carried out in parallel in which either PDK1, or peptide substrate were omitted; these values were always less than 5% of the activity measured in the presence of these reagents. […]

The target of assay [3] is T1, PDK1. In words: Phosphorylation of GST-p70 S6K-T2 by PDK1 in vitro (32P autoradiography). Conditions: GST fusion 1.5 μM; GST-PDK1 50 nM. Also on record: made in house; host or cells: 293 cells or E. coli. The assay is classed as biochemical. On the procedure:
FIG. 1. PIF prevents PDK1 from phosphorylating p70 S6K in vitro. GST-p70 S6K lacking the C-terminal 104 amino acids (GST-p70 S6KT2) (1 μg) was incubated for 30 min at 30° C. with Mg [γ^32P] ATP and GST-PDK1 (50 nM) in the presence or absence of either wild type (wt) GST-PIF or D978A GST-PIF (1.5 μM), or the indicated PIF peptides (4 μM) in a final volume of 20 μl. The reactions were terminated by making the solutions 1% in SDS, the samples subjected to SDS-polyacylamide gel electrophoresis, and the phosphorylation assessed by autoradiography of the gel. The position in the gel where GST-p70 S6KT2 (73 kDa) migrates is indicated with an arrow. The only other ^32P-labelled protein on the gel which is not shown, corresponded to autophosphorylation of PDK1 and contained ˜10 fold lower levels of ^32P-radioactivity than that of the GST-p70 S6T2 phosphorylated by PDK1 in the absence of PIF. A high amount of PDK1 is used in this experiment to achieve a near maximal phosphorylation of GST-p70 S6T2. If the reactions were carried out at a 10-fold lower concentration of PDK1 under conditions where the phosphorylation of GST-p70 S6T2 by PDK1 is linear with time and the amount of substrate used, then PIF still prevented the phosphorylation of GST-p70 S6T2 (data not shown). wt indicates wild type and PSer indicates phospho-serine. The results of a duplicate experiment for each condition are shown, and similar findings were obtained in five separate experiments.
Preparation of insect cell His-p70 S6K. p70 S6K with a His-epitope tag at its N-terminus lacking the carboxy terminal 104 residues is termed p70 S6K-T2. In order to prepare wild type and the mutant 412E-p70 S6K-T2 the cDNA for these constructs was amplified by PCR from the pMT2 vector encoding these forms of p70 S6K [6] using the following oligonucleotides: 5′-AGGATCCACCATGCACCATCACCATCACCATATGAGGCGAGCAAGGAGGCGG-3′ and 5′-GCGGCCGCTCAACTTTCAAGTACAGATGGAGCC-3′. The PCR products were then subcloned into the BamH1/Not1 sites of the pFASTBAC 1 vector and this vector was used to generate recombinant baculovirus using the Bac-to-Bac system (Life Technologies Inc). The resulting viruses, encoded p70 S6K-T2 or 412E-p70 S6K-T2 with an N-terminal hexahistidine sequence, and was used to infect Sf21 cells (1.5×10^6/m) at a multiplicity of infection of 5. The infected cells were harvested 72 h post-infection and the His-p70 S6K proteins purified by Ni^2+/NTA (nitrilotriacetic acid)-agarose chromatography as described previously for PKBβ [25]. […]

Assay [4] deals with PDK1. Conditions: ref [22]; cited from earlier work.

Take “full length S6K1[T412E]: Flag epitope tagged full length S6K1 with Thr412 to Glu”: the “interaction with GST-PDK1” value in assay [1] is on record as “failed to interact”.

In the case of “KTFCGTPEYLAPEVRREPRILSEEEQEMFRDFDYLADWC [PDKtide, 39 amino acid polypeptide composed of T308tide fused to PIFtide]”, the “rate of phosphorylation by PDK1 relative to T308tide” value in assay [2] (assayed at 100 μM) was “over 100 fold”.

In the case of `CC(C)C[C@H](NC(=O)[C@H](Cc1ccc(O)cc1)NC(=O)[C@H](CCC(=O)O)NC(=O)[C@@H]1CCCN1C(=O)[C@@H](NC(=O)CNC(=O)[C@H](CS)NC(=O)[C@H](Cc1ccccc1)NC(=O)[C@@H](NC(=O)[C@@H](N)CCCCN)[C@@H](C)O)[C@@H](C)O)C(=O)N[C@@H](C)C(=O)N1CCC[C@H]1C(=O)N[C@@H](CCC(=O)O)C(=O)N[C@H](C(=O)N[C@@H](CCCNC(=N)N)C(=O)N[C@@H](CCCNC(=N)N)C(=O)O)C(C)C` [T308tide, KTFCGTPEYLAPEVRR, reference compound] (H-KTFCGTPEYLAPEVRR-OH), the Km in assay [2] (read-out: Km of PDK1 for peptide substrate) was more than 10 mM.

For the molecule “full length S6K1: Flag epitope tagged full length S6K1”, in assay [1], the “interaction with GST-PDK1” value is reported as “failed to interact”.

As to “GST-D978A-PIF: mutant GST-PIF in which the amino acid equivalent to Asp978 in PRK2 is mutated to Ala”, the “effect on phosphorylation of GST-p70 S6K-T2 by PDK1” value in assay [3] was “poorly inhibited”. In addition, the “affinity for PDK1 compared with wild type PIF” value in assay [4] is recorded as “markedly reduced affinity”.
